The values that follow come from article PMC4940160, “Architecture and RNA binding of the human negative elongation factor”.

Series [1] deals with NELF-A (6-188);NELF-C (183-590) (Homo sapiens;Homo sapiens, UniProt Q9H3P2;Q8IXH7 6-188;183-590, |). In words: fluorescence anisotropy; NELF-AC: 30 mM NaCl, 3 mM MgCl2, 10 mM Na-HEPES pH 7.4, 2 mM DTT, 50 ug/ml BSA; other NELF complexes: same with 60 mM NaCl and 5 ug/ml yeast tRNA; 10 nM nucleic acid, incubated at RT, read at 30 C. The conditions noted are these: protein: recombinant;recombinant, tags: N-His6 removed by thrombin;none, copies: 1;1.
Chain of NELF-A (6-188);NELF-C (183-590) (Q9H3P2 6-188, chain 1 of 2): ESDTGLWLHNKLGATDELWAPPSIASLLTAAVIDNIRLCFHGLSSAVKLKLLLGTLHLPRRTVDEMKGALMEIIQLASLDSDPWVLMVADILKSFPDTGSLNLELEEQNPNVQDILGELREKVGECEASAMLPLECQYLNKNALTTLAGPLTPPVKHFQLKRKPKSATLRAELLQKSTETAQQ
Chain of NELF-A (6-188);NELF-C (183-590) (Q8IXH7 183-590, chain 2 of 2): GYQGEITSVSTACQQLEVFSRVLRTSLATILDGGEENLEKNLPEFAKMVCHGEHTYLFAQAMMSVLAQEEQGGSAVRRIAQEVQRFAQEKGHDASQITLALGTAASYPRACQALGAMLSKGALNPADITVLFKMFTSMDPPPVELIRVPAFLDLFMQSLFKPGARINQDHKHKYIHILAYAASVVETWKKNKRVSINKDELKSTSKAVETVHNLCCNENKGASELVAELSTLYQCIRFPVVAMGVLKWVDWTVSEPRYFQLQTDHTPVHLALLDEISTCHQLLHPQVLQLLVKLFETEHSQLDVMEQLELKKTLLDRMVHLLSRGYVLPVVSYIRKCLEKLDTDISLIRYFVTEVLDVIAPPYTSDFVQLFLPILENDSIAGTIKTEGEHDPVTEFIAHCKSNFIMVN

Series [2] has as its target T1, NELF-A (6-188) patches 1,4;NELF-C (183-590) patches 1,2,4 (Homo sapiens;Homo sapiens, UniProt Q9H3P2;Q8IXH7 6-188;183-590, R65Q;R66Q;K146M;K161M;K168M;R175Q|R291Q;K315M;K371M;K372M;K374M;R419Q;R506Q). Described as above. The conditions noted are these: protein: recombinant;recombinant; tags: N-His6 removed by thrombin;none; copies: 1;1; label: 5'-FAM; single strand.

In series [3] the target is NELF-A (6-188) patches 1,4;NELF-C (183-590) patches 1,2,3,4 (Homo sapiens;Homo sapiens, UniProt Q9H3P2;Q8IXH7 6-188;183-590, R65Q;R66Q;K146M;K161M;K168M;R175Q|R291Q;K315M;K371M;K372M;K374M;K384M;K388M;R419 …). Described as above. The conditions noted are these: protein: recombinant;recombinant; tags: N-His6 removed by thrombin;none; copies: 1;1; label: 5'-FAM; single strand.

In series [4] the target is NELF-A full-length;NELF-B;NELF-D (called NELF-C);NELF-E (1-138) (Homo sapiens;Homo sapiens;Homo …, UniProt Q9H3P2;Q8WX92;Q8IXH7-4;P18615 1-528;49-628;1-581;1-138, |||). In words: fluorescence anisotropy; yeast tRNA 5 ug/ml; NELF-AC: 30 mM NaCl, 3 mM MgCl2, 10 mM Na-HEPES pH 7.4, 2 mM DTT, 50 ug/ml BSA; other NELF complexes: same with 60 mM NaCl and 5 ug/ml yeast tRNA; 10 nM nucleic acid, incubated at RT, read at 30 C. The conditions noted are these: protein: recombinant;recombinant;recombinant;recombinant, copies: 1;1;1;1, label: 5'-FAM. (In general: In fluorescence polarisation assays a small probe gives low polarisation when free and higher when bound to something large.)
Chain of NELF-A full-length;NELF-B;NELF-D (called NELF-C);NELF-E (1-138) (Q9H3P2 whole entry, chain 1 of 4): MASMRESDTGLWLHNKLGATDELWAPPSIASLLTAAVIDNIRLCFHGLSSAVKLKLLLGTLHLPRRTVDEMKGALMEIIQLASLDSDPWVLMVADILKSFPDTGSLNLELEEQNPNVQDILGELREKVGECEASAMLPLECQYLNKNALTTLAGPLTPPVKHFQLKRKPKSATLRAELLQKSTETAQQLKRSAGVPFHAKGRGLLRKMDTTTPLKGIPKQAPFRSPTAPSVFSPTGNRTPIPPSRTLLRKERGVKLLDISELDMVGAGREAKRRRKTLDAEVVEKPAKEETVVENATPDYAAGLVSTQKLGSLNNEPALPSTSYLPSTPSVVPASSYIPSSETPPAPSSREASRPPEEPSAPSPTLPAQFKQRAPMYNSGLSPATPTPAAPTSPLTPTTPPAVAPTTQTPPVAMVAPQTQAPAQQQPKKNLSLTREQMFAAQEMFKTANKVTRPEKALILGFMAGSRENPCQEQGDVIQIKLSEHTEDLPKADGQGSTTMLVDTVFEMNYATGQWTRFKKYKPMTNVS
Chain of NELF-A full-length;NELF-B;NELF-D (called NELF-C);NELF-E (1-138) (Q8WX92 whole entry, chain 2 of 4): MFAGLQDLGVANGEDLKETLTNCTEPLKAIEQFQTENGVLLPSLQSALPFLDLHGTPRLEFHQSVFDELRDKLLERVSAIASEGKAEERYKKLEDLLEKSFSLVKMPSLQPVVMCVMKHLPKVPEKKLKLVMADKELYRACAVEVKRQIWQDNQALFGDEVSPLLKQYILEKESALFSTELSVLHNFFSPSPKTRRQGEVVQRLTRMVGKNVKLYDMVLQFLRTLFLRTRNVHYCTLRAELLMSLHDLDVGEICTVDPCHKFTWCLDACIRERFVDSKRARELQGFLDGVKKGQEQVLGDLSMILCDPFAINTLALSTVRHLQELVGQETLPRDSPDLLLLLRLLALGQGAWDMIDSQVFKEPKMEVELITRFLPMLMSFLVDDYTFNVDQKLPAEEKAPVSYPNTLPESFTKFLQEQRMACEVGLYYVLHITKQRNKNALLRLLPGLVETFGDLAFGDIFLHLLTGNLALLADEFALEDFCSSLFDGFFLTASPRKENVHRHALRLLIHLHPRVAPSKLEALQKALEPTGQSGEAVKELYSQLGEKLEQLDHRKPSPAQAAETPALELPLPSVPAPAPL
Chain of NELF-A full-length;NELF-B;NELF-D (called NELF-C);NELF-E (1-138) (Q8IXH7 10-590, chain 3 of 4): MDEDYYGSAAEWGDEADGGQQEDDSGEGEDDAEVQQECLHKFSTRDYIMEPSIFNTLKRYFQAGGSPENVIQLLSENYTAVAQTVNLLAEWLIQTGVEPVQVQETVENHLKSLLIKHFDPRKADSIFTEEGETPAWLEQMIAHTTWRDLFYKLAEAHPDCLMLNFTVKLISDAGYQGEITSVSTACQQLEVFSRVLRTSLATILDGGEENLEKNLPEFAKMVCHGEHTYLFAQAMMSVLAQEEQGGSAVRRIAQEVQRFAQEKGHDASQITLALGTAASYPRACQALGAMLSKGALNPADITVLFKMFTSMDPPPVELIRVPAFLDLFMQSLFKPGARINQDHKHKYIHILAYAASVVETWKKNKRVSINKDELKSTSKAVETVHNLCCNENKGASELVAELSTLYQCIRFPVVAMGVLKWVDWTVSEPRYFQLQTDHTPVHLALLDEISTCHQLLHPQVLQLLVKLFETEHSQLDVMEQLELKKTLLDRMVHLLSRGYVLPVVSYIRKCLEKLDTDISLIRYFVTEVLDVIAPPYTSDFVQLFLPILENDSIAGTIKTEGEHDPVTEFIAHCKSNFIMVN
Chain of NELF-A full-length;NELF-B;NELF-D (called NELF-C);NELF-E (1-138) (P18615 1-138, chain 4 of 4): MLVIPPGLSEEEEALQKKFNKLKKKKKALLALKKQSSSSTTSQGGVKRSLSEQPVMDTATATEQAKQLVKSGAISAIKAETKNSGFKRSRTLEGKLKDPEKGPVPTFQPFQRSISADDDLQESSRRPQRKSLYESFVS

Series [5] has as its target NELF-B (Homo sapiens, UniProt Q8WX92 49-628). The series is described as above. As to conditions: protein: recombinant; tags: N-His6-TEV in NELF-B and NELF-BE constructs (cleaved); label: 5'-FAM; single strand.
The target in series [6] is NELF-A full-length;NELF-B;NELF-D patch mutant (called NELF-C);NELF-E (1-138) (Homo sapiens;Homo sapiens;Homo …, UniProt Q9H3P2;Q8WX92;Q8IXH7-4;P18615 1-528;49-628;1-581;1-138, ||R282Q;K306M;K362M;K363M;K365M;K375M;K379M;R410Q;R497Q|). The description is as above. As to conditions: protein: recombinant;recombinant;recombinant;recombinant; copies: 1;1;1;1; label: 5'-FAM; single strand.

In series [7] the target is NELF-B;NELF-E (1-138) (Homo sapiens;Homo sapiens, UniProt Q8WX92;P18615 49-628;1-138, |). Described as above. As to conditions: protein: recombinant;recombinant, tags: N-His6-TEV in NELF-B and NELF-BE constructs (cleaved);none stated, copies: 1;1, label: 5'-FAM.
Chain of NELF-B;NELF-E (1-138) (Q8WX92 whole entry, chain 1 of 2): as the sequence (Q8WX92 whole entry, chain 2 of 4) above
Chain of NELF-B;NELF-E (1-138) (P18615 1-138, chain 2 of 2): as the sequence (P18615 1-138, chain 4 of 4) above
The target in series [8] is NELF-A full-length;NELF-B;NELF-D (called NELF-C) (Homo sapiens;Homo sapiens;Homo sapiens, UniProt Q9H3P2;Q8WX92;Q8IXH7-4 1-528;49-628;1-581, ||). The series is described as above. The conditions noted are these: protein: recombinant;recombinant;recombinant, tags: none stated;N-His6-TEV in NELF-B and NELF-BE constructs (cleaved);N-His6-TEV, cleaved, copies: 1;1;1, label: 5'-FAM.
Chain of NELF-A full-length;NELF-B;NELF-D (called NELF-C) (Q9H3P2 whole entry, chain 1 of 3): as the sequence (Q9H3P2 whole entry, chain 1 of 4) above
Chain of NELF-A full-length;NELF-B;NELF-D (called NELF-C) (Q8WX92 whole entry, chain 2 of 3): as the sequence (Q8WX92 whole entry, chain 2 of 4) above
Chain of NELF-A full-length;NELF-B;NELF-D (called NELF-C) (Q8IXH7 10-590, chain 3 of 3): as the sequence (Q8IXH7 10-590, chain 3 of 4) above

Series [9] has as its target T2, NELF-A full-length;NELF-B;NELF-D patch mutant (called NELF-C) (Homo sapiens;Homo sapiens;Homo sapiens, UniProt Q9H3P2;Q8WX92;Q8IXH7-4 1-528;49-628;1-581, ||R282Q;K306M;K362M;K363M;K365M;K375M;K379M;R410Q;R497Q). In words: fluorescence anisotropy; yeast tRNA 5 ug/ml; error as printed; NELF-AC: 30 mM NaCl, 3 mM MgCl2, 10 mM Na-HEPES pH 7.4, 2 mM DTT, 50 ug/ml BSA; other NELF complexes: same with 60 mM NaCl and 5 ug/ml yeast tRNA; 10 nM nucleic acid, incubated at RT, read at 30 C. The conditions noted are these: protein: recombinant;recombinant;recombinant, tags: none stated;N-His6-TEV in NELF-B and NELF-BE constructs (cleaved);N-His6-TEV, copies: 1;1;1, label: 5'-FAM, single strand.

In series [10] the target is NELF-A full-length;NELF-B;NELF-D (called NELF-C);NELF-E full-length (Homo sapiens;Homo sapiens;Homo …, UniProt Q9H3P2;Q8WX92;Q8IXH7-4;P18615 1-528;49-628;1-581;1-380, |||). In words: fluorescence anisotropy; yeast tRNA 5 ug/ml; NELF-AC: 30 mM NaCl, 3 mM MgCl2, 10 mM Na-HEPES pH 7.4, 2 mM DTT, 50 ug/ml BSA; other NELF complexes: same with 60 mM NaCl and 5 ug/ml yeast tRNA; 10 nM nucleic acid, incubated at RT, read at 30 C. The conditions noted are these: protein: recombinant;recombinant;recombinant;recombinant; copies: 1;1;1;1; label: 5'-FAM; hairpin.

For series [11], the target named is T2, NELF-A full-length;NELF-B;NELF-D patch …. Described as above. The conditions noted are these: protein: recombinant;recombinant;recombinant; tags: none stated;N-His6-TEV in NELF-B and NELF-BE constructs (cleaved);N-His6-TEV, cleaved; copies: 1;1;1; label: 5'-FAM; single strand.
Series [12] addresses T1, NELF-A (6-188) patches 1,4;NELF-C …. The series can be described thus: fluorescence anisotropy; text says impaired; Bmax printed 12.92; NELF-AC: 30 mM NaCl, 3 mM MgCl2, 10 mM Na-HEPES pH 7.4, 2 mM DTT, 50 ug/ml BSA; other NELF complexes: same with 60 mM NaCl and 5 ug/ml yeast tRNA; 10 nM nucleic acid, incubated at RT, read at 30 C. As to conditions: protein: recombinant;recombinant; tags: N-His6 removed by thrombin;none; copies: 1;1; label: 5'-FAM; single strand.

Broadly, the Kd is the free concentration of one partner at which half of the binding sites on the other are occupied at equilibrium, for simple one-to-one binding. On to AAGGGGAGCGGGGGAGGAUAAUAGG (ssRNA) [60% GC ssRNA], for which the dissociation constant (Kd) in [1] (label: 5'-FAM, single strand) is 6870 ± 460 nM; in series [2] it was 14300 ± 2410 nM; in [3], 14300 ± 2670 nM; in series [4] (single strand), 30 ± 7 nM; in [5] it was 8500 ± 1590 nM; in [6], 94 ± 20 nM. For the same molecule, the values for the equilibrium dissociation constant (Kd) in [7] (single strand), in series [8] (single strand) and in [9] were 2830 ± 1000 nM, 74 ± 14 nM and 290 nM, respectively.
In the case of CCAGAUCUGAGCCUGGGAGCUCUCUGG (structured_RNA) [HIV-1 TAR RNA stem loop], the Kd was 869 ± 140 nM in series [4] (hairpin), 5590 ± 1050 nM in [7] (hairpin), 1320 ± 180 nM in [8] (hairpin) and 146 ± 30 nM in [10].

B1: 60% GC dsDNA (dsDNA)
DNA 1: AAGGGGAGCGGGGGAGGATAATAGG
DNA 2: CCTATTATCCTCCCCCGCTCCCCTT
As to B1, the binding result in [1] (label: 5'-FAM) is reported as “no binding”.
As to AAGACTGAGCCGGCGGCCGC (ssDNA) [c-fos ssDNA], the binding result in series [1] (label: 5'-FAM, single strand) is “binds”.

B2: 60% GC DNA-RNA hybrid (DNA:RNA)
DNA: AAGGGGAGCGGGGGAGGATAATAGG
RNA: CCUAUUAUCCUCCCCCGCUCCCCUU
For the molecule B2, the binding result in [1] is “no binding”.
As to ACCCCACAACUAAAAAAUCCCAACC (ssRNA) [44% GC ssRNA], in series [1] (label: 5'-FAM, single strand), the binding result is listed as “no binding”.
For AGCGGCCAGGCCAGCCUCGGAGCCA (ssRNA) [junB ssRNA], in [1] (label: 5'-FAM, single strand), the Kd was around 8000 nM.
Turning to AAGGGGAGCGGGGGAGGATAATAGG (ssDNA) [60% GC ssDNA], the Kd in [1] (label: 5'-FAM, single strand) stood at 17500 ± 1330 nM; in series [4] (single strand), 30 ± 10 nM; in [5], 6310 ± 1920 nM; in series [6], 300 ± 80 nM; in [11], 770 ± 20 nM; in [7] (single strand), 17400 ± 3500 nM. The Kd came out at 100 ± 30 nM in series [8] (single strand) and 12900 ± 2280 nM in [12].
